Data taken from patent US20200331999 (published 2020).

Key:
human TIGIT ECD [1] = biological target: T1, human TIGIT ECD (human); test: SPR, pH 7.4
T1 chain: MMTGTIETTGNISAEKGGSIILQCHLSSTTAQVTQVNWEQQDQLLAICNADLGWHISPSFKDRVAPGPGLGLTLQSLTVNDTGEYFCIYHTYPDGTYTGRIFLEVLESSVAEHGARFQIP

human TIGIT ECD [2] = biological target: T1, human TIGIT ECD; test: SPR, pH 6.0
human TIGIT-Fc [3] = biological target: T2, human TIGIT-Fc (human); test: competition, FACS, blocking binding to PVR on HEK293
T2 chain: T1 chain

human TIGIT-Fc [4] = biological target: T2, human TIGIT-Fc; test: competition, FACS, blocking binding to PVR-L2 on HEK293

Kd (human TIGIT ECD [1]): 0.219 nM | Kd (human TIGIT ECD [2]): 0.0299 nM | IC50 (human TIGIT-Fc [3]): 0.64 µg/mL | IC50 (human TIGIT-Fc [4]): 0.25 µg/mL
B1: hu1217-2-2/IgG1 (antibody, V domains shown)
VH: EVQLVESGGGLVQPGGSLRLSCAASGFTFSDYYMYWVRQAPGKGLEWVAYITKGGGSTYYPDSVKGRFTISRDNAKNTLYLQMNSLRAEDTAVYYCARQTNYDFTMDYWGQGTLVTVSS
VL: EIVMTQSPATLSVSPGERATLSCKASQDVGTSVAWYQQKPGQAPRLLIYWASARHTGIPARFSGSGSGTEFTLTISSLQSEDFAVYYCQQYSSYPLTFGGGTKVEIK
modifications: wild-type human IgG1 Fc
